One experiment concerns the target NKp30-Fc (human) (UniProt O14931). Kind of experiment: BLI.
The target in another experiment is CC3-Fc (human) (UniProt O14931). The experiment can be described thus: BLI.

“Soluble monomeric B7H6-His (from UniProt Q68D85 25-262) (domain or fragment)” registered a Kd with NKp30-Fc (human) of 1300 nM.

B1: Soluble monomeric B7H6-His (domain or fragment)
chain: DLKVEMMAGGTQITPLNDNVTIFCNIFYSQPLNITSMGITWFWKSLTFDKEVKVFEFFGDHQEAFRPGAIVSPWRLKSGDASLRLPGIQLEEAGEYRCEVVVTPLKAQGTVQLEVVASPASRLLLDQVGMKENEDKYMCESSGFYPEAINITWEKQTQKFPHPIEISEDVITGPTIKNMDGTFNVTSCLKLNSSQEDPGTVYQCVVRHASLHTPLRSNFTLTAARHSLSETEKTDNFS
B1 yielded a dissociation constant Kd with CC3-Fc (human) of 680 nM.
